From PMC2190708 (Nucleic Acids Research, 2007)

T1: CthPnkp (Acetivibrio thermocellus, UniProt A3DJ38)
T1 sequence (A3DJ38 1-870): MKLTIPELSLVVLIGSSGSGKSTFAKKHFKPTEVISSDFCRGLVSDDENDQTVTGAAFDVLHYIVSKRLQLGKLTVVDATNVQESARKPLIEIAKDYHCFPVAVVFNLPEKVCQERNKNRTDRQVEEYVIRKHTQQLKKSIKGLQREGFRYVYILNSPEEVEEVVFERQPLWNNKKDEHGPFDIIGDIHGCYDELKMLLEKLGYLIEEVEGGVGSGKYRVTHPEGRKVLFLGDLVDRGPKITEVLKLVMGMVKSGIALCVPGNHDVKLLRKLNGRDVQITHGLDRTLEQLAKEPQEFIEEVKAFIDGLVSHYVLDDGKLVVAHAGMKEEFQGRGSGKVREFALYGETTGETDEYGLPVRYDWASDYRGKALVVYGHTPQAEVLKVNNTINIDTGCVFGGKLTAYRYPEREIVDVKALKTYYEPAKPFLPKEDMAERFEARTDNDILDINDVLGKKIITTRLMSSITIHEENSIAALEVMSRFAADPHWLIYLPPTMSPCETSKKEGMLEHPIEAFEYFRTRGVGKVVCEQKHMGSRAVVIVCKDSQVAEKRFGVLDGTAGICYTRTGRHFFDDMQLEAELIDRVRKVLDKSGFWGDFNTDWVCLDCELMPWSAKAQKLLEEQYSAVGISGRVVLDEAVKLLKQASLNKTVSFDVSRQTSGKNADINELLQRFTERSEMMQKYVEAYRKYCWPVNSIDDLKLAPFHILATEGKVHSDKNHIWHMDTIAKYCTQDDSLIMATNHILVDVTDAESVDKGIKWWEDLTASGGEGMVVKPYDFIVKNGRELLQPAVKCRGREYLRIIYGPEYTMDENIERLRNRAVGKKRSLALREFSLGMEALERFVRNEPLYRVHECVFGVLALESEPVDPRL

B1: λ-Pase (Escherichia phage Lambda) (protein)
chain: MRYYEKIDGSKYRNIWVVGDLHGCYTNLMNKLDTIGFDNKKDLLISVGDLVDRGAENVECLELITFPWFRAVRGNHEQMMIDGLSERGNVNHWLLNGGGWFFNLDYDKEILAKALAHKADELPLIIELVSKDKKYVICHADYPFDEYEFGKPVDHQQVIWNRERISNSQNGIVKEIKGADTFIFGHTPAVKPLKFANQMYIDTGAVFCGNLTLIQVQGEGA

Experiments:
CthPnkp = biological target: T1, CthPnkp; experiment: p-nitrophenol release; type: biochemical; conditions: Tris-HCl pH 7.0, 0.5 mM MnCl2, data not shown
purified protein [1] = substrate: O=[N+]([O-])c1ccc(OP(=O)(O)O)cc1; experiment: purified protein; conditions: Mn2+; exact conditions of titration not given, data not shown
purified protein [2] = substrate: O=[N+]([O-])c1ccc(OP(=O)(O)Oc2ccc([N+](=O)[O-])cc2)cc1; experiment: purified protein; conditions: Mn2+; exact conditions of titration not given, data not shown

| Molecule | Km (CthPnkp) [mM] | Km (purified protein [1]) [mM] | Km (purified protein [2]) [mM] |
| --- | --- | --- | --- |
| O=[N+]([O-])c1ccc(OP(=O)(O)c2ccccc2)cc1 [compound ②, p-nitrophenyl phenylphosphonate] | 67 | – | – |
| B1 | – | 5.0 ± 0.1 | 10 ± 1.6 |
